Substrate in the series: C=CCc1cc(OC)c(O)c(OC)c1
Briefly: purified protein. As to conditions: Tris-HCl 50 mM, pH 7.5, 25 °C, O2 as co-substrate. Format: biochemical, Rhodococcus jostii.

B1: Eugenol oxidase (EUGO) (Rhodococcus jostii RHA1) (protein)
chain: MTRTLPPGVSDERFDAALQRFRDVVGDKWVLSTADELEAFRDPYPVGAAEANLPSAVVSPESTEQVQDIVRIANEYGIPLSPVSTGKNNGYGGAAPRLSGSVIVKTGERMNRILEVNEKYGYALLEPGVTYFDLYEYLQSHDSGLMLDCPDLGWGSVVGNTLDRGVGYTPYGDHFMWQTGLEVVLPQGEVMRTGMGALPGSDAWQLFPYGFGPFPDGMFTQSNLGIVTKMGIALMQRPPASQSFLITFDKEEDLEQIVDIMLPLRINMAPLQNVPVLRNIFMDAAAVSKRTEWFDGDGPMPAEAIERMKKDLDLGFWNFYGTLYGPPPLIEMYYGMIKEAFGKIPGARFFTHEERDDRGGHVLQDRHKINNGIPSLDELQLLDWVPNGGHIGFSPVSAPDGREAMKQFEMVRNRANEYNKDYAAQFIIGLREMHHVCLFIYDTAIPEAREEILQMTKVLVREAAEAGYGEYRTHNALMDDVMATFNWGDGALLKFHEKIKDALDPNGIIAPGKSGIWSQRFRGQNL
notes: homodimer
Regarding B1, the Km is 0.8 µM and the turnover number (kcat) came out at 0.49 s⁻¹.

For the origin of these results see PMC5089669, “Biocatalytic Properties and Structural Analysis of Eugenol Oxidase from Rhodococcus jostii RHA1: A Versatile Oxidative Biocatalyst” (Chembiochem, 2016).
